Results published in the DeepSol protein solubility set.

Assay: soluble on expression in E. coli; label from the status in PepcDB or PDB records

Sequence | soluble on expression in E. coli
MSHHKLEVKNLSFTYPDGHKAIDGISFTVRHGESVGIVGENGAGKSTLLLVLMGVLFPNQGEVRVGDVRVTKKTLPLIRQRLGMVFQNPDDQLFMTTVYDDVAFGPRNYKLDEKEVEDRVMKSLDMVGISHLKDKAPYKLSGGEKRAAAIATVLSMQPDILVMDEPTSSLDPRSRRRVMELLKNFEHTKIITSHDLDMVLEICERTIVLKQGKVAADGLTSEILADKELMNTCGLEVPLALQGCPVCGEKKKYV | soluble
MGSDKIHHHHHHNNDDDGTNKAQEIAGKYEGYSIGNCAMFTDYVMGEKSVATIVPNEDGTINVTYDSGSGEFKLNNIKVTSKTFEGSGQVELSMNDKPAGAKDFTLTGSIDEQQKLTLKVNVPSVMGGLTIEFIQGTLPISYHVSGTYNKEANLSVSVGSTTYPDITDCKVSIKRSSDDTVELTLKGLSNLNSSQTGRAMNLGDFTVTDVKVTSTDNSIFKIEGSINTTDTNNTPITGTLSGTVSNSETNITFTFKPGAMPIDITAMFKGKK | not soluble
ISLKYTAARLHEKGVLLEIEDLQVNQFKNVIFEISPTEEVGDFEVKAKFMGVQMETFMLHYQDLLQLQYEGVAVMKLFDRAKVNVNLLIFLLNKKFYGK | soluble
MGLVQTNDQQLFIGVDGGGSKCRATIYTADGTVLGTGVAGRANPLHGLAQTFESIEASAHQALLDAGMKATDSHLLVAGLGLAGVNVPRLYQDVVNWQHPFAAMYVTTDLHTACIGAHRGADGAVIITGTGSCGYAHVGDASLSIGGHGFALGDKGSGAWLGLKAAEHVLLALDGFATPTALTEMLLSHLGVKDALGIVEHLAGKSSSCYAQLARNVLDCANAGDQVAIAIVQEGADYISEMARKLFMLNPVRFSMIGGLAEPLQAWLGSDVVAKISETLAPPELGAMYYAQQQFNSATVLEHHHHHH | soluble
GPGSMVDPSVLLAYCPTHDFQRIEAVVREWPGVEAVGSLRTKEGKENTTSVFIKFSDKEAARDATSRIDAVPGLVRKIEEPKAKQRMRKMGKNMLIDPAMEIFSFGATDKGDVTFNERKREGNRRRHPSVIGPGSGSERTSNKGNNAIRHHPFTPPARASVALVDNVPFNMTNDQVARLFSPFGELIDLSRYETMAMVFYRSPDSVLKCIQQLNGKTVKGKIITVSSGAITIPGLLAAVVGVQVHN | soluble
MAHHHHHHMVGLRTRNVIDPIHGGVGRVIGGKGVSIDRNDGSIISDNEGENDRNGGDIPKAEGEEGRDAQDKGNAKVVMPIDEANQSNIANICSCDFTERLNFIPQEKTKVVCNLNPHHGEEVKIWVNKEYEVKCFQNSRVYCPSKDNIVNNTDITTYSPKLKYNISDVVHRDREVKEYHLQIDKDASDILLFCSIKPKQVSELLEGEVKINLKREISEEYSIPDEHGIHACNFSKGNLDISPSAGFYYKNDRSVSCIYLVIPNKLFLIKLPKLDIVTNQLLPSLVNCLSEHSFINFNLKHVEEGDESISLHLSFGDFKRTFNLSCAFDLSEYVIEPCLLGKKGIVTFYFNA | not soluble
MNKYFYDGTPEGLVSAIGAILESGDDPEQTVLSIRQDTLFEEGLFLRTDSAVAEALFQRLRERAPDAVQTLWYFTMTEVDGLATSLLRYIALAFEHGDQVNGYLTHPDVKAVVATARKVGRELHRMKGLLRFEQLRDGTWLARMEPDHNVIQPLARHFSRRLRTQEWFIYDARRHSAAHWDGHALSFGTLERFSRPELSPEERVMQQLWQTFFKTIAIPERKNPRLQQSNMPAKYWKYLTEKQGE | not soluble
MRGSHHHHHHGSACCASRDDWRCARSMHEFSAKDIDGHMVNLDKYRGFVCIVTNVASQCGKTEVNYTQLVDLHARYAECGLRILAFPCNQFGKQEPGSNEEIKEFAAGYNVKFDMFSKICVNGDDAHPLWKWMKIQPKGKGILGNAIKWNFTKFLIDKNGCVVKRYGPMEEPLVIEKDLPHYF | soluble
MSLVEAISLWNEGVLAADKKDWKGALDAFSAVQDPHSRICFNIGCMYTILKNMTEAEKAFTRSINRDKHLAVAYFQRGMLYYQTEKYDLAIKDLKEALIQLRGNQLIDYKILGLQFKLFACEVLYNIAFMYAKKEEWKKAEEQLALATSMKSEPRHSKIDKAMECVWKQKLYEPVVIPVGKLFRPNERQVAQLAKKDYLGKATVVASVVDQDSFSGFAPLQPQAAEPPPRPKTPEIFRALEGEAHRVLFGFVPETKEELQVMPGNIVFVLKKGNDNWATVMFNGQKGLVPCNYLEPVELRIHPQQQPQEESSPQSDIPAPPSSKAPGRPQLSPGQKQKEEPKEVKLSVPMPYTLKVHYKYTVVMKTQPGLPYSQVRDMVSKKLELRLEHTKLSYRPRDSNELVPLSEDSMKDAWGQVKNYCLTLWCENTVGDQGFPDEPKESEKADANNQTTEPQLKKGSQVEALFSYEATQPEDLEFQEGDIILVLSKVNEEWLEGECKGKVGIFPKVFVEDCATTDLESTRREV | soluble
MAGDPMRLEIAEKYMAEAYEYLKKGDTIQASGKAYKVAEEIVKAIKFLISKLIGQDVGVISPYRTQVRKLDQELANYKPYVEVNTVDAFQGREKDVIIFSVTATNGLRFVTNRRRLNVAFTRPRYKLIVLGNENSIMSCQMTICLEHHHHHH | not soluble
SLQDFWCSTLVKGVIYGSYSVSEMFPKNFTNCTWTLENPDPTKYSIYLKFSKKDLSCSNFSLLAYQFDHFSHEKIKDLLRKNHSIMQLCNSKNAFVFLQYDKNFIQIRRVFPTNFPGLQKKGEEDQKSFFEFLVLNKVSPSQFGCHVLCTWLESCLKSENGRTESCGIMYTKCTCPQHLGEWGIDDQSLILLNNVVLPLNEQTEGCLTQELQTTQVCNLTREAKRPPKEEFGMMGDHTIKSQRPRSVHEKRVPQEQADAAKFMAQTG | soluble
KVWDRAVDFLAANESRVRTETRRIGGADFLVWRWIQPSASCDKILVIPSKVWQGQAFHLDRRNSPPNSLTPCLKIRNMFDPVMEIGDQWHLAIQEAILEKCSDNDGIVHIAVDKNSREGCVYVKCLSPEYAGKAFKALHGSWFDGKLVTVKYLRLDRYHHRFPQALTSNTPLKPSNKHMNSMSHLRLRTGLTNSQGSS | soluble
MGSDKIHHHHHHMNAVLQKKGGVGIIILARLDSTRLPGKALRTAAGKEMLGYVVERARMVRGVSEIVLATTDRTVDDRLEEYAAACDLAVFRGSDVDVAGRVAACVRWRGWDAFVRINGDSPFIDPQTISSAVNLLYGLGGVSAAGLSDSHAQRGNMHAECASLPLVACGSVTLAGYAGHDATELPDMVTNVLRRTFPKGQSVEVCRASAFLAGYAAMHLPEHLEHVTKYFYDTRSIRIMNMESGDPSLGEIQLAVDTEEDFALFERMLARMDRPHTAYAAHEIIELYRECLHG | not soluble
MDQLSAMRAFVRVVETGSFSATGKEMNTSQTTISKKVAALENQIGVKLLTRSSRDHSLTPAGSDYYQTCVNILSELDEVEAKVRSKATLPQGSIRITAPVAFGRFLLAPIVAEFFQHYPDIKIDLLLNDKHVNLISEGIDVAIRAKNLEDSSLVARHLLDNPMYLFASPDYLEQYGEPKHPNELSTHNCLIYSGLQDAHIWNFNHGEKEYSVPVKGNFQSDNGDVLLDVALTGVGIVSLPIWMAKAHLTSGHLRQIMTKYSGQQLPINAIYPQRRYTPLKVRCFIDFLKQKLSE | not soluble
MAHHHHHHMATDLDSFSTYIDHLILLLAARFHAPLEVSVEELLPSSMNLSAEAQCPWELVACSVQQALRTPQTAQERLLMRHLDVHHFSASVCRERARYMQWKLQECRRRRGDKQQLVQSPAVPSAARANTSSTVAASATAAGQPCDVACTSLHNDVCSLYKLVLQSLPSTLGGTESDDDEEDAQAPTTSVQSLASASEPSSFERVHEVFMRTPAEQERDELVARARDEFLSQVQALQSVYYEKYHRWMDVPASVLDPPPASSKQPASTDGAAAALESAAPQRGSESERAALLEALGAAAAPPPRHRKQANHASSSGAADWTEKPHTLASMLHQVQLRRPLRPSAVSDDVLESLYRARAETEEAPKNLCVASGLRSCPPAASTSATPSFAGGCADTITAEAVAVAPSSSQPSSSVAAVRKDTVPPASRRGRWQIVEYDDDDDGEG | not soluble
MGSDKIHHHHHHMLKFLKDSKVDFTVRCCGVSSIPCALFFLTRSTNRTYSILVKEWKNIEKLLDPFFTKGIDQLSMVDALRILMRIGDTLNGVRNHERLYRYIDSLFPAQKIPGGLEIWAFDLFEGKEVVFKEGDDLRRALKISLSFPILYRPYEDRYVPITWITGVPEGELTVLFDVKKEKNPPRNALEYLFLSTTARTKHLERERIKKAKSLRIACTSLSPVSTTRRAYEEFSRFFEEVVL | not soluble
